Data taken from paper PMC3151165 (2009).

B1: cyclo[D-Ala2(-CH=CH-)Ala5]Dyn A-(1-11)NH2 cis (3) (peptide)
chain: YAGFARRIRPK
modifications: D-Ala2, cis -CH=CH- bridge between residues 2 and 5 side chains, C-terminal amide

Molecular target: T1, delta opioid receptor (Mus musculus, UniProt P32300)
T1 chain: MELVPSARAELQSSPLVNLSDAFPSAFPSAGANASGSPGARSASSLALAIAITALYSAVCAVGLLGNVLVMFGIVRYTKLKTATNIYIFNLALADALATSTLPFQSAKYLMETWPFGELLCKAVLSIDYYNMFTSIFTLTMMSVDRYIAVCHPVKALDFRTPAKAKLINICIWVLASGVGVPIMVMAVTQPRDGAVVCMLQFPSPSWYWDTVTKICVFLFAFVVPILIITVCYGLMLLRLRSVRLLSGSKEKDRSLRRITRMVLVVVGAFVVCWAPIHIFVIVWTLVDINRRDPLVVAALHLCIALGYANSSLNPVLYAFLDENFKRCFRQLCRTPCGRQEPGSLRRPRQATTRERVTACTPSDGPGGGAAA
Experiment: radioligand competition

Binder | Ki [nM]
B1 | 9.3
YAGFARRIRPK (trans -CH=CH- bridge between Ala2 and Ala5 side chains, C-terminal amide) [cyclo[Ala2(-CH=CH-)Ala5]Dyn A-(1-11)NH2 trans (2)] | 1130
YAGFARRIRPK (cis -CH=CH- bridge between Ala2 and Ala5 side chains, C-terminal amide) [cyclo[Ala2(-CH=CH-)Ala5]Dyn A-(1-11)NH2 cis (1)] | 7670

Molecular target: T2, mu opioid receptor (Rattus norvegicus, UniProt P33535)
T2 chain: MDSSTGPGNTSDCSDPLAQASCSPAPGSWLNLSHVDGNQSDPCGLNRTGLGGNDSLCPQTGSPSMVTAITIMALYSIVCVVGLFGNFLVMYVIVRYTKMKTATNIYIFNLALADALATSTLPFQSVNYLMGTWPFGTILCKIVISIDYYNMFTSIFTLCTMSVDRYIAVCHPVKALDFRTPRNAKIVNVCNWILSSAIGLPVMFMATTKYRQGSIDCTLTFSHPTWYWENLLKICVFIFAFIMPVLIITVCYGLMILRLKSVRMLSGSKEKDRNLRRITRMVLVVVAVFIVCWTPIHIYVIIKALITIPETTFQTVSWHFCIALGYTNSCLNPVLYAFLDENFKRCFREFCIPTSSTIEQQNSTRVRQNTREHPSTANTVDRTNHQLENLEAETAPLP
Experiment: radioligand competition

Binder | Ki [nM]
B1 | 2.33
YAGFARRIRPK (trans -CH=CH- bridge between Ala2 and Ala5 side chains, C-terminal amide) [cyclo[Ala2(-CH=CH-)Ala5]Dyn A-(1-11)NH2 trans (2)] | 180
YAGFARRIRPK (cis -CH=CH- bridge between Ala2 and Ala5 side chains, C-terminal amide) [cyclo[Ala2(-CH=CH-)Ala5]Dyn A-(1-11)NH2 cis (1)] | 763
YGGFARRARPK (cis -CH=CH- bridge between Ala5 and Ala8 side chains, C-terminal amide) [cyclo[Ala5(-CH=CH-)Ala8]Dyn A-(1-11)NH2 cis (5)] | 93
YGGFARRARPK (trans -CH=CH- bridge between Ala5 and Ala8 side chains, C-terminal amide) [cyclo[Ala5(-CH=CH-)Ala8]Dyn A-(1-11)NH2 trans (6)] | 36
